Assay results published in patent US10052364B2, “Osteocalcin as a treatment for cognitive disorders” (THE TRUSTEES OF COLUMBIA UNIVERSITY IN THE CITY OF NEW YORK, priority 2013, dated 2018).

Assay: Ex vivo dual perfusion of the mouse placenta (maternal-fetal transport)
Assay type: in vitro ADME
Settings: 300 ng/ml through the uterine artery
Protocol: FIG. 6. Maternal osteocalcin favors fetal neurogenesis. (A) Expression of osteocalcin (qPCR) in bone, brain, and placenta of WT and Ocn^−/− newborns (postnatal day [P] 0) and embryos (E13.5-E18.5). (B) Osteocalcin circulating levels in WT or Ocn^−/− newborns (P0) and embryos (E13.5-E18.5). (C) Ex vivo dual-perfusion system that monitors the transport of osteocalcin across the placenta. Uncarboxylated mouse osteocalcin (300 ng/ml) was injected through the uterine artery in placentas obtained from WT mice at E14.5, E15.5, and E18.5 of pregnancy. Osteocalcin in fetal eluates is represented as % of maternal input. (D) Circulating levels of osteocalcin in WT embryos originating from WT or Ocn^+/− mothers, of Ocn^+/− embryos originating from Ocn^+/− Ocn^−/− mothers, and of Ocn^−/− embryos originating from Ocn^+/− or Ocn^−/− mothers. Measurements were performed at E16.5 and E18.5. […]
Maternal-fetal transport of osteocalcin was monitored using ex vivo dual perfusion of the mouse placenta (Goeden & Bonnin, 2013, Nature Protocols 8:66-74). […] Osteocalcin transport through the placenta was analyzed by measuring the concentration of osteocalcin present in fetal eluates obtained through the umbilical vein, each time point (1-9) corresponding to a 10 minute collection period (at 5 μl/min). […]

B1: uncarboxylated osteocalcin: Recombinant osteocalcin bacterially produced, cleaved from the GST subunit; completely undercarboxylated at all three sites (protein, listed as Homo sapiens)
chain: MRALTLLALLALAALCIAGQAGAKPSGAESSKGAAFVSKQEGSEVVKRPRRYLYQWLGAPVPYPDPLEPRREVCELNPDCDELADHIGFQEAYRRFYGPV
modifications: uncarboxylated
notes: Recombinant osteocalcin bacterially produced, cleaved from the GST subunit; completely undercarboxylated at all three sites
transport across the placenta, onset (WT placentas): begins to cross the placenta at day 14.5 of gestation | transplacental transfer to the fetal circulation at day 15.5 or 18.5 of gestation (compared with day 14.5): larger transplacental transfer
